Kd data for six molecules are collected here from US20240390531A1 (IMAGINAB, published 2024).

The Kd is the constant that tells how readily two partners part at equilibrium. Read a low Kd as a tighter complex.

Test [1] has as its target T1, purified human FAP antigen (human, UniProt Q12884 26-760, limits assumed). Briefly: ELISA, plate coated with purified human FAP antigen (FIG. 91D). Here is the method:
(§1) Binding kinetics of the novel antigen binding constructs to a purified human FAP antigen was assessed using ELISA. For this assay, a 96 well ELISA plate was coated with the human-FAP antigen diluted to a concentration of 2 mg/mL in coating buffer (0.05M sodium carbonate-bicarbonate buffer, pH 9.6). 100 μl of this coating solution was added to each well in the plate and incubate at 4° C. overnight. The plate was washed 3 times with 300 μl per well of washing buffer (PBS with 0.05% Tween-20). After the last wash, the plate was blocked by adding to each well 200 μl of blocking buffer (PBS with 1% BSA) warmed to room temperature. The plate was then incubated at room temperature for 1 hour under gentle agitation. After blocking, the plate was washed 3 times with 300 μl per well of washing buffer. Dilution samples for each minibody were created by making 2.5× dilutions from a starting sample at 100 ng/mL, or 250 ng/mL, or 1000 ng/mL or 3000 ng/mL in 100 μL sample buffer (PBS with 1% BSA). The dilution samples were transferred to the assay plate and incubated at room temperature for 1 hour under gentle agitation. The plate was then washed 3 times with 300 μl per well of washing buffer.

Test [2] has as its target T1, purified human FAP antigen. Briefly: ELISA, plate coated with purified human FAP antigen (FIG. 91B). The procedure:
as §1
A general note: In an ELISA, binding on a coated surface is turned into a signal by an enzyme label.

Test [3] addresses T1, purified human FAP antigen. Nature of the test: ELISA, plate coated with purified human FAP antigen (FIG. 91E). The procedure:
as §1

The target in test [4] is T1, purified human FAP antigen. Briefly: ELISA, plate coated with purified human FAP antigen (FIG. 91F). Here is the method: as §1

B1: IAB16M2-48 (other)
chain: QVQLVQSGAEVKKPGSSVKVSCKASGFSLTNYDINWVRQAPGQGLEWMGLIWTGGGTNYNQKFQGRVTITKDNSTSTAYMELSSLRSEDTAVYYCVRGGPLVWYALDYWGQGTLVTVSSGSTSGGGSGGGSGGGGSSDIQMTQSPSSLSASVGDRVTITCKASQDVSTAVAWYQQKPGKAPKLLIYSASYRYTGVPSRFSGSGSGTDFTLTISSLQPEDFATYYCQQHYSNPRTFGQGTKVEIK
In test [1], B1 showed a Kd of approximately 0.1 nM.

B2: IAB16M1-42 (other)
chain: DIQMTQSPSSLSASVGDRVTITCKASQDVSTAVAWYQQKPGKAPKLLIYSASYRYTGVPSRFSGSGSGTDFTFTISSLQPEDIATYYCQQHYSNPRTFGGGTKVEIKGSTSGGGSGGGSGGGGSSQVQLQESGPGLVKPSETLSLTCTVSGFSLTNYDINWIRQPPGKGLEWIGLIWTGGGTNYNPSLKSRVTISKDTSKNQFSLKLSSVTAADTAVYYCVRGGPLVWYALDYWGQGTLVTVSSEPKSSDKTHTCPPCPPCGGGSSGGGSGGQPREPQVYTLPPSREEMTKNQVSLTCLVKGFYPSDIAVEWESNGQPENNYKTTPPVLDSDGSFFLYSKLTVDKSRWQQGNVFSCSVMHEALHNHYTQKSLSLSPG
In test [2], B2 gave a Kd of approximately 0.1 nM.

B3: IAB16M2-51 (HC-N76S) (other)
chain: QVQLQESGPGLVKPSETLSLTCTVSGFSLTNYDINWIRQPPGKGLEWIGLIWTGGGTNYNPSLKSRVTISKDNSKNQFSLKLSSVTAADTAVYYCVRGGPLVWYALDYWGQGTLVTVSSGSTSGGGSGGGSGGGGSSDIQMTQSPSSLSASVGDRVTITCKASQDVSTAVAWYQQKPGKAPKLLIYSASYRYTGVPSRFSGSGSGTDFTFTISSLQPEDIATYYCQQHYSNPRTFGGGTKVEIKEPKSSDKTHTCPPCPPCGGGSSGGGSGGQPREPQVYTLPPSREEMTKNQVSLTCLVKGFYPSDIAVEWESNGQPENNYKTTPPVLDSDGSFFLYSKLTVDKSRWQQGNVFSCSVMHEALHNHYTQKSLSLSPG
Turning to B3, the Kd in test [1] was approximately 0.1 nM.

B4: IAB16M2-52 (other)
chain: QVQLQESGPGLVKPSETLSLTCTVSGFSLTNYDINWIRQPPGKGLEWIGLIWTGGGTNYNPSLKSRVTISKDTSKNQFSLKLSSVTAADTAVYYCVRGGPLVWYALDYWGQGTLVTVSSGSTSGGGSGGGSGGGGSSDIVMTQSPSSLSASVGDRVTITCKASQDVSTAVAWYQQKPGKAPKLLIYSASYRYTGVPSRFSGSGSGTDFTFTISSLQPEDIATYYCQQHYSNPRTFGGGTKVEIKEPKSSDKTHTCPPCPPCGGGSSGGGSGGQPREPQVYTLPPSREEMTKNQVSLTCLVKGFYPSDIAVEWESNGQPENNYKTTPPVLDSDGSFFLYSKLTVDKSRWQQGNVFSCSVMHEALHNHYTQKSLSLSPG
In the case of B4, the Kd in test [3] was approximately 0.1 nM.

B5: IAB16M1-49 (other)
chain: DIQMTQSPSSLSASVGDRVTITCKASQDVGIAVAWYQQKPGKAPKLLIYWASTRHTGVPSRFSGSGSGTDFTFTISSLQPEDIATYYCQQYSRYPYTFGQGTKLEIKGSTSGGGSGGGSGGGGSSDVQLVESGGGLVKPGGSLRLSCTVSGFTFSSYTMSWVRQAPGKGLEWVSTISSGGSYTYYADSVKGRFTISRDNAKNSLYLQMNSLRAEDTAVYYCTRDQVGYAMDYWGQGTLVTVSSEPKSSDKTHTCPPCPPCGGGSSGGGSGGQPREPQVYTLPPSREEMTKNQVSLTCLVKGFYPSDIAVEWESNGQPENNYKTTPPVLDSDGSFFLYSKLTVDKSRWQQGNVFSCSVMHEALHNHYTQKSLSLSPG
In test [4], B5 displayed a Kd of approximately 1 nM.

B6: IAB16M2-50 (other)
chain: DVQLVESGGGLVKPGGSLRLSCTVSGFTFSSYTMSWVRQAPGKGLEWVSTISSGGSYTYYADSVKGRFTISRDNAKNSLYLQMNSLRAEDTAVYYCTRDQVGYAMDYWGQGTLVTVSSGSTSGGGSGGGSGGGGSSDIQMTQSPSSLSASVGDRVTITCKASQDVGIAVAWYQQKPGKAPKLLIYWASTRHTGVPSRFSGSGSGTDFTFTISSLQPEDIATYYCQQYSRYPYTFGQGTKLEIKEPKSSDKTHTCPPCPPCGGGSSGGGSGGQPREPQVYTLPPSREEMTKNQVSLTCLVKGFYPSDIAVEWESNGQPENNYKTTPPVLDSDGSFFLYSKLTVDKSRWQQGNVFSCSVMHEALHNHYTQKSLSLSPG
As to B6, the dissociation constant Kd in test [4] was approximately 10 nM.
